± gives the standard deviation of the averaged measurements.

The text below walks through data of the supplement of paper PMC10724198.
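Further: PSI is a weighted mean of sequencing reads over stability bins, variants kept only with over 10 reads, mCherry proximal and sfGFP distal, peptide attached via GGGS linker.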

For the data set, the system named is Saccharomyces cerevisiae. Nature of the data set: protein stability index of tFT-peptide fusion (C-terminal peptide) (PSI (0-1 scale)); higher = more stable (slower turnover). The conditions noted are these: genetic background: wild type; temperature: 30 C. Here is the method: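 Multiplexed protein stability (MPS) profiling in S. cerevisiae. Random 12-aa peptides (tFT-X12 library) are fused to the C-terminus of a sfGFP-mCherry tandem fluorescent timer, after mCherry and a GGGS linker. Cells are FACS-sorted into 8 mCherry/sfGFP bins and deep-sequenced. The protein stability index (PSI) is the read-weighted bin average, scaled from 0 (unstable) to 1 (stable). Only peptides with >10 reads are reported; cells were grown at 30 °C in SC-His with glucose.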
GGRVPRCRTVLL displayed a protein stability index of 0.681 ± 0.033.
Take GGSGGGRRGVGR: the protein stability index was found to be 0.656 ± 0.0095.
As to GGSGLRCCREMG, the protein stability index came to 0.681 ± 0.022.
Turning to GGSLPAHPRNPL, the protein stability index was 0.701 ± 0.027.
The result for GGSRGGTFLWGP reads 0.672 ± 0.036.
The result for GGSTAKGRPMDT reads 0.645 ± 0.0067.
As for GGTEGSGWSGGG, the protein stability index was determined as 0.638 ± 0.029.
Turning to GGTGGRLGVGHV, the protein stability index is 0.704 ± 0.073.
Turning to GGTGRGGEMGGR, the protein stability index was determined as 0.7428 ± 0.0069.
As to GGTGRVGEMGGR, the protein stability index was 0.755 ± 0.034.
In the case of GGTWVLGWGLGV it was 0.714 ± 0.4.
GGVCVGSFLFDR yielded a protein stability index of 0.702 ± 0.029.
For GGVEVAQGVVWC, the protein stability index was 0.715 ± 0.066.
As to GGVGGGRAGVWG, the protein stability index is 0.681 ± 0.021.
For the sequence GGVGGPGLDGWK, the protein stability index was found to be 0.676 ± 0.059.
GGVLAGEWGAGL showed a protein stability index of 0.624 ± 0.051.
GGVSGQLLRSHG came in with a protein stability index of 0.682 ± 0.0027.
GGVSVVTRVAPR came in with a protein stability index of 0.658 ± 0.016.
The result for GGVVLDEEVGCG reads 0.614 ± 0.06; that for GGWGCGGWGFVG, 0.58568 ± 0.00052.
With GGWGGGGGAWSG, the protein stability index amounted to 0.71 ± 0.041.
In the case of GGWGWRSGTEGE it was 0.665 ± 0.012; in that of GGWHVVGGAGVG, 0.564 ± 0.01; in that of GGWWGGLGCFMV, 0.699 ± 0.034.
In the case of GGYGGGWRGGGR it was 0.626 ± 0.077; in that of GGYRFCSKYKSE, 0.673 ± 0.023; in that of GGYYIFGLCDLL, 0.625 ± 0.075.
Regarding GHAYKYVDSFRR, the protein stability index was determined as 0.654 ± 0.044.
GHGGHIVRTSSY returned a protein stability index of 0.7 ± 0.023.
GHLGLFEEETGG displayed a protein stability index of 0.711 ± 0.053.
GHRLSMCLGFGK returned a protein stability index of 0.63 ± 0.01.
In turn, GHVCTRCVWPRV showed a protein stability index of 0.606 ± 0.055.
In the case of GIDARGLYGGAL, the protein stability index came to 0.66 ± 0.032.
The result for GIGCMVYKGGFQ reads 0.6977 ± 0.0011; that for GIGYVTPLSRVL, 0.72 ± 0.038; that for GIKKNQVSIRYI, 0.606 ± 0.03.
Turning to GIKMTWTNGQHF, the protein stability index is 0.6909 ± 0.0054.
On to GILFFLQLCACS, for which the protein stability index is 0.7014 ± 0.0064.
The result for GILNIRKALDGK reads 0.6477 ± 0.0026.
Consider GIPCRCVCLNQW, for which the protein stability index worked out at 0.6961 ± 0.0017.
The sequence GIPIQKLEYMCK gave a protein stability index of 0.669 ± 0.019.
For the sequence GIPPVLFAPPPL, the protein stability index was determined as 0.696 ± 0.022.
The result for GIQSGGGGGKGG reads 0.668 ± 0.015; that for GIRGECEFHSCD, 0.685 ± 0.015.
The result for GIRKRIEKKKIK reads 0.7 ± 0.051; that for GISGGTVSILGV, 0.704 ± 0.0096; that for GKAIKRPIGIRG, 0.683 ± 0.019.
The result for GKALPALPSGLL reads 0.657 ± 0.025; that for GKECLIRKSHDG, 0.674 ± 0.011.
Turning to GKEKGRAEGRDG, the protein stability index was 0.701 ± 0.023.
With GKILKGAASPSC, the protein stability index was determined as 0.72 ± 0.019.
As to GKITKNKDNIET, the protein stability index was 0.686 ± 0.021.
In the case of GKKGKEKGEEKR it was 0.716 ± 0.028; in that of GKKKHRSNPRRS, 0.725 ± 0.067.
The sequence GKKKIDDKGRWI had a protein stability index of 0.678 ± 0.14.
In the case of GKNAEENNIVRE, the protein stability index worked out at 0.614 ± 0.083.
In the case of GKNKRKTYGKRE it was 0.722 ± 0.035; in that of GKQKKKHRRNLK, 0.743 ± 0.12.
In turn, GKQNQEKNKKTS gave a protein stability index of 0.696 ± 0.045.
GKRGRDYIKVRE gave a protein stability index of 0.6448 ± 0.006.
Regarding GKRTVLFTRCRQ, the protein stability index turned out to be 0.5888 ± 0.0055.
GKTRKGKKRKRK yielded a protein stability index of 0.666 ± 0.14.
GKTRLIEDTQTT returned a protein stability index of 0.67 ± 0.019.
Consider GKVCVLKLSPWI, for which the protein stability index stood at 0.814 ± 0.16.
As for GKVGSLGLVLSP, the protein stability index was 0.682 ± 0.096.
GLAFVGWGPRFR registered a protein stability index of 0.71 ± 0.028.
On to GLAYPAGALSLL, for which the protein stability index was determined as 0.684 ± 0.1.
Consider GLCGVCVLKFPR, for which the protein stability index was found to be 0.759 ± 0.15.
Regarding GLCLLSKDGCLV, the protein stability index was found to be 0.669 ± 0.055.
Sequence GLCRLLEILKLR registered a protein stability index of 0.63 ± 0.054.
GLCSMRLYKPRI registered a protein stability index of 0.634 ± 0.014.
In the case of GLEIGMSQVSMG, the protein stability index was 0.645 ± 0.036.
GLEVGVRGVMGC yielded a protein stability index of 0.688 ± 0.033.
Sequence GLGGPLSLVYLF gave a protein stability index of 0.629 ± 0.037.
The sequence GLGLASSGWGRG registered a protein stability index of 0.733 ± 0.018.
In turn, GLGLVSWEAGGG registered a protein stability index of 0.702 ± 0.017.
The result for GLGSSVLQVGVR reads 0.689 ± 0.056.
